This data set is described as follows: soluble on expression in E. coli; label from the status in PepcDB or PDB records.
With “MGSDKIHHHHHHMNYEDFKEVIHGRRSVRKFTEQEVATSDIKDIIDCARYAPSDTNSQTWEFLVIMNREKIKEIEQMTWDALHKLAAKAAKNGEEKAGKLLTRSFGPYATAFSEAPVLIVCLATPYESKFREKIFDPIAFVPDSVWEEEGIKSSCLAAQNLMLAAHAKGLGTCPMTGPVLLAQDELRQYLQIEPEKQINMVISLGFPKDKPKKLPRKEVDEITTFVF”, the “soluble on expression in E. coli” value is reported as “not soluble”. With MDPGKKKQHICHIQGCGKVYGKTSHLRAHLRWHTGER the entry was “soluble”; with “MGSDKIHHHHHHMKDKSNSPLIKELKLANLLSFGSETTDIQLNSLNVVVGPNGSGKSNLIDAISLLQASPSDLAVPIRKGGGIRDWLWRGMELPTASMEVITPSAPHGNKDLRYYLAFTALKQRFELIDECLETKEPYTNHSEPYFYYRYQNGNPVINNIKDQKRMLKREDIDPEQSILSQRKDPDQYPEITWLGKQFAAIRIYREWNFGRKALLRQPQGADAPNDYLAEDCSNLGLVLNKLRTNYKVKKKVLDLLSQFYEGIDDFDVIVEGGTVQLFLQEGEFMIPATRLSDGTLRFLCLLAILCNPDPPPLICIEEPELGIHSDIIPVIGQLLKDASKMTQLIVTTHSEILVDELTDMPEAVLVCEKHEGMTRFRRLEKDLLKDWLERYSLGELWRKGEIGGTRW”, “not soluble”. To “VTPVTTFPLVDAILAGRDRNLDGVILIAAQHLLQTTHAMLRSLFRVGLDPRNVAVIGKCYSTHPGVVDAMRADGIYVDDCSDAYAPHESFDTQYTRHVERFFAESWARLTAGRTARVVLLDDGGSLLAVAGAMLDASADVIGIEQTSAGYAKIVGCALGFPVINIARSSAKLLYESPIIAARVTQTAFERTAGIDSSAAILITGAGAIGTALADVLRPLHDRVDVYDTRSGCMTPIDLPNAIGGYDVIIGATGATSVPASMHELLRPGVLLMSASSSDREFDAVALRRRTTPNPDCHADLRVADGSVDATLLNSGFPVNFDGSPMCGDASMALTMALLAAAVLYASVAVADEMSSDHPHLGLIDQGDIVASFLNIDVPLQALSRLPLLSIDGYRRLQVRSGYTLFRQGERADHFFVIESGELEALVDGKVILRLGAGDHFGEACLLGGMRRIATVRACEPSVLWELDGKAFGDALHGDAAMREIAYGVARTRLMHAGASESLMV” belongs “not soluble”. With “MSTTANKERCLEMVAAWNRWDVSGVVAHWAPDVVHYDDEDKPVSAEEVVRRMNSAVEAFPDLRLDVRSIVGEGDRVMLRITCSATHQGVFMGIAPTGRKVRWTYLEELRFSEAGKVVEHWDVFNFSPLFRDLGVVPDGL” the entry was “soluble”. Regarding “MKKVLLVNGPNLNRLGVREVNVYGKGTLATLEADMKQEAEAMGVELECFQSNHEGAIIDRIHEAEDIYEGIILNPGAFTHYSYAIRDAIASISIPVIEVHISNIHQRESFRHESVTAAVCAGQIVGFGFYGYKLALFALMEKLREA”, the “soluble on expression in E. coli” value is “not soluble”. With “MEDGHISSWWVVDLGEEHQLMCNYYTFRQDGSRAFTRFWKFQGSMDGKTWTDLRVHEDDQTMCKAGQFASWPITAANALLPFRFFRLVLTGPTADTSTPWNFCICYLELYGYFR”, the “soluble on expression in E. coli” value was “not soluble”. With “MGSDKIHHHHHHLPALPHIPIPVNFEEYCQQKAAPPGSSTYYALRQAPAASQPLLTALFALRREFEETVKETSDPTIGRTKLAWWQNEIAALASDSPSHPVSKALAAYLPDVKTEYPALQTLLAGFEMDLDQARYLDYPNLRRYVQGVGGTFASLVARATAKDAAQASNWSAPLGEALMLAQFVVETGHDARHGRIYIPIDEMQRFNVTAADLINRKYTEAFTELMRFETKRARDALQSALGAVPGSERRTQRTLVAQAALASALLDEIERDGYHVLHQRIALTPIRKLWIAWRAK”, the “soluble on expression in E. coli” value was “not soluble”. On to “MPSISKTKSGERYRAPTDQARKMDRKKENKRNKKDRQQIRQAMAKYCNLDETTSKLLALERQILGLDPQPFHIDVLRKKQKVLTDSINKRRMTLQQGKEDAELKKFNDKINAYQSDCQKLAVLAQQARLAREADPDMIPLPMGDVSTAGPERNNQLLAPAMIKRKVEFQLPPRPVRVAGQKPPGPPCGLAPNFSDSEEEEEEVHDDHYDDIDLAPVPIPEFDNPYQPIHRNYGPPSSYNSMPTRMPHHHHHHHPHASSHYNPMGFQNHHEEAVISSAPQINRSNEPAAPATLSAAPELRNLRRETVKLVPAQLLRRPGDNKTIVPRQAAPVQRRPEVQKQAKNTDEAYNDFMKELDGLI”, for which the “soluble on expression in E. coli” value is recorded as “not soluble”. Take “MKLKAILIVALSVVLFLVGYREMKPISDEQKMESMIKALEKNDAKVEKWSWLARETKTISNIHTFQKLLNDVKEKANIQKWEVEQSPDGYKATSYKKLSSYEERVVVTWSKENTKENTFIIFEVSGAKWDPKYVQNMNKIFSEKPIIYTCVQGVLNDKIEGVLQNKTNQVLKDLSARAIEQVEERAFVSVSAYNKKWDDALSTNREKINVQIAIRSTDNKDTIVVGTPIITSEY”: the “soluble on expression in E. coli” value is recorded as “not soluble”. Turning to “MLYLHDVWVNWFEGEENGYNVCHFYEWRKDDTIELLDQVPLLKVDATLYHYIENELLELPQKMLKTYIIRLIFVKIMNVCSKSIALLLQNGKGIIAIDTIGYNVPIRKSRLIPRQEQMVYEMVENVQAEKYEFQVEETEKEHHILSPSPFIMNGLTRKERQLKQLLFMALDQLHTTKNTAEIRYWFTEWDPSAYGMVQHMEFEDIWAKLYDEAKTGWSDKHEQLCERLVKGQPFFEKLWEMENEQKVN”, the “soluble on expression in E. coli” value is on record as “not soluble”.

As for “MIVVLKMGADKNEVKKLIEAIGREGVEVNPIDGTELTVLGLVGDTSKIDAKRIEANKVVEKVMHVVEPFKKANRKFHPEPSIINVNGMEIGSKKIAMIAGPCSVETEDQIVSIAKDVKKSGAGFLRGGAFKPRTSPYAFQGLKYDGLDLLKKAKEKTGLPIVTEIMSTQDIDIFEENVDVIQVGARNMQNFDLLKELGKTNKTILLKRGLSATIEEWLMSAEYIMAGGNENVVLCERGIRTFETYTRNTLDLSAILAVKKLSHLPVIVDPSHAAGKSWMVDSLSKAAIAVGADGLIIEVHNDPAHALCDGKQSIKPNEYDELISELKTIASAVGREI”, the “soluble on expression in E. coli” value is listed as “not soluble”.

For “MGSDKIHHHHHHMMLGNIAYMNPWWEGKEDYHVKLWKNQKIRWEPNWVREISLKPFSLNFILGPRQVGKTTGIKLLIQKILENNPPESVLYLNLEVLPTYRDLLEIIREFQELKKEERIKTGYIFLDEASSLEGWWRGIKPLIDAGLLENDVVTVTGSSSLRVRRDIEMFPGRRGEGKTLEIMPLSFPEYIKVMGLKKHRLESTKVLKLFDKYIQTGGFPGSINGFPMEDLLGAYIGEFVRFGKSLEIAKETLAALIRSAPSATSFRALAEMTSGYSYKVIQDYIEFFRDIYILGIAYLKEDNQVMYRREKKFFFRDPLLARLFSLWSGVEVREDALYEWIVQEHVFRRFGEVYYFRNSYEVDVIADNLKIEVKAGKAHRKYPRGVLVLEKDDIPFFLIEYYWTGLK”, the “soluble on expression in E. coli” value was “not soluble”.

Consider “MGSDKIHHHHHHMLSRTADHLFWMARYTERAENTARMLDVNYQTSLLPQSAEVAEQGWWAMLDISELTNAFDHKYGLLTRDDVIDFMVRDMTNPSSIMSCLRAARENARAVRGSLTTEVWETVNTTWLDVQRMIADGELQEDPSRFFEWVKFRSHLARGVQFGTMLKDDAFHFMRLGTFLERADNTARILDVKFQASGSDDSDPNREQNDFYHWAAVLRSVSGFEVYRKVYRAVITPQRVAELLILRPDMPRSLVSSMDEVVAILAMVCNHQSGETERQAGKLHADLKFARIDDIFAVGLHAFLTSFLERIGDIGNGISRDFLVPLQAA”, for which the “soluble on expression in E. coli” value was “not soluble”.

In the case of “DRRFQETLDKIRKEEGYDFAAIAFYESNKPSSPIKWHYVSGNKNNRFKLIILRKGRGLAGTVMKTGKRMVIANVGLALGPEEKIDYPILLSESLTAVLAVPLWYKNQVYGVLLFGQRDGRPLPKIFDNDDIQ”, the “soluble on expression in E. coli” value was “not soluble”.

Take “TTYKHSLQDLTAQRSLGAIPFAGRYRLIDFMLSNMVNADIRSVAIFPKYRYRSLMDHLGAGKEWDLHRKKDGLFFFPSPHLHHEYDEFGSFRQFSDHLDYFHRSTQQYAVISNSHTVCNIQFQYVLKRHQEVGCDVTEVFQDGQSLQIYIMSTTLLKDLIYGHSEKGYKTIQEAVEKESSALTICPYEYSGYAAVIDSVEKYYTHSMELIQPRFWQQVFLPQQPIYTKVKDEPPTKYGKHSTVKNSLVANGCVLEGEVENCILFRAVHVGKGTKLKNCIIMQKTQIGEDCLLEQVISDKDVKIGKATEAAGTAEQPLVLRKGLVQGE”: the “soluble on expression in E. coli” value is listed as “not soluble”.

Source of the values: the DeepSol protein solubility set.
